Data on two substances can be found in patent publication US20260167731A1.

For experiment [1], the target named is human CCR8 (human) (UniProt P51685). Put plainly: cell-based or functional assay.
For experiment [2] the target is unchanged. Put plainly: flow cytometry, hCCR8 transfected CHOK1 cells. On the technique in general: A flow cytometer gives signals particle by particle.

Turning to “hCCL1 (from UniProt P22362 24-96) (ligand)”, in experiment [1], the EC80 of hCCL1, hCCR8 Gi2 BRET, HEK-293 in suspension (protocol #1) was determined as 6 nM and the EC80 of hCCL1, hCCR8 Gi2 BRET, adherent HEK-293 (protocol #4) stood at 0.6 nM.
In the case of “murine anti-human CCR8 monoclonal antibody L263G8”, in experiment [2], the % positive cells turned out to be 86.5% and the MFI fold change to isotype ctrl is 19.8 fold.
